Laboratory results published in patent publication US9486502B2, “Methods of administering interferon gamma to absorb fluid from the subretinal space” (The United States of America, as represented by the …, priority 2008, dated 2016).

Columns and labels:
rat RPE = assay: in vivo retinal re-attachment assay (OCT)
Description: All animal experiments were conducted in compliance with the ARVO Statement for the use of Animals in Ophthalmic and Vision Research, and the protocol was approved by the Animal Care and Use Committee of the National Institutes of Health. The procedures have been described in detail in Maminishkis, A., et al., Invest Ophthalmol Vis Sci, 2006, 47, 3612-3624, incorporated by reference in its entirety herein. Briefly, retinal detachments were created in long-Evans rats by injecting 0.5 to 3 μl of modified phosphate-buffered saline (MPBS) Ringer's solution into the sub-retinal space (SRS), which separates the photoreceptor outer segments and the apical membrane of the RPE. In the control portion of each experiment (at 0-70 minutes after creation of the retinal detachment), the rate of change of bleb volume was measured. The control period of “constant” volume was defined by JV≦2 μl hr cm over at least 40 minutes. Any control injections that exceeded this threshold rate were rejected from subsequent analysis.
IFNγ was dissolved in MPBS, mixed with Celluvisc® solution (1:1) and applied as eye-drops (0.4 mL). Optical coherence tomography (OCT) imaging (Institute of Applied Physics, Russian Academy of Science, Nizhniy Novgorod, Russia) was used to measure the time course of the detachment volume change.
A previously tested in vivo rodent model of retinal detachment was used to measure the effect of IFNγ on re-absorption following retinal detachment, as described in Example 11 and in Maminishkis, A., et al., Invest Ophthalmol Vis Sci, 2002, 43, 3555-3566, incorporated herein by reference in its entirety. Initial detachment was created by injecting approximately 1 μl of osmotically-balanced, modified phosphate-buffered saline (MPBS) Ringer's solution into the extracellular space, i.e. the sub-retinal space (SRS). After stabilization of the detachment, IFNγ (40 μl of 100 ng/ml) was added to the anterior surface of the eye via eye drops (Celluvisc®). A series of 3D OCT images were recorded at different time points.

hfRPE monolayers = assay: fluid transport (JV, TEP, RT) across hfRPE monolayers in modified Üssing chamber; format: cell-based, human
Text: Confluent monolayers of hfRPE cultured on transwells were mounted in a modified Üssing chamber and transepithelial water flow measurements (JV) were made with a capacitance probe technique as described previously in Maminishkis, A., et al., Invest Ophthalmol Vis Sci, 2006, 47, 3612-3624; Shi, G., et al., Invest Ophthalmol Vis Sci, 2008, 49, 4620-4630; Edelman, J. L., et al., Invest Ophthalmol Vis Sci, 1991, 32, 3033-3040; Jiang, C., et al., Science, 1993, 262, 424-427; and Maminishkis, A., et al., Invest Ophthalmol Vis Sci, 2002, 43, 3555-3566, each incorporated herein by reference in its entirety.
Tissue viability was ascertained by recording transepithelial potential (TEP) and total tissue resistance (RT). It should be noted that the solution composition changes in this chamber were relatively slow (≈1-2 chamber volumes per minute) and the data sampling rate was once per minute, more than two orders of magnitude slower than the sampling rate in the electrophysiology chamber (see below). Therefore it was not possible to record fast changes, in seconds or minutes, in JV, TEP, or RT. After addition of IFNγ to the apical or basal baths, steady-state JV, TEP, and RT were recorded for 20-30 minutes. In control experiments, successive additions of IFNγ were made to test for the repeatability and reversibility of responses. To block IFNγ effects, RPE cells were incubated for 30-60 minutes with a blocking antibody against IFNγ R1, JAK inhibitor I, PKA inhibitors (H-89, EMD Biosciences; RP-8-Br-cAMPS, Sigma-Aldrich), nitric oxide synthase inhibitor (aminoguanidine hydrochloride, Sigma-Aldrich), P38 MAPK inhibitors (SB203580 or SB20290), or CHX. Other components of this signaling pathway were studied using P38 MAPK inhibitors (SB203580 and SB202190). Relatively specific Cl channel inhibitors, CFTRinh-172 or DIDS (EMD Biosciences, La Jolla, Calif.), were used to block cAMP or Ca^2+-activated Cl channels; experiments with CFTRinh-172 were performed as described in Muanprasat, C., et al., J Gen Physiol, 2004, 124, 125-137, incorporated herein by reference in its entirety. In chronic experiments, paired hfRPE tissues with matched RT values were incubated for 4-24 hours with IFNγ or CHX. The subsequent changes in JV, RT, and TEP were measured in Ringer's solution or serum free cell culture media as previously described in Shi, G., et al., Invest Ophthalmol Vis Sci, 2008 and Maminishkis, A., et al., Invest Ophthalmol Vis Sci, 2006, 47, 3612-3624, each incorporated herein by reference in its entirety. Intracellular levels of NO were elevated with 1-Hydroxy-2-oxo-3-(3-aminopropyl)-3-isopropyl-1-triazene (NOC-5, Enzo Life Sciences, Plymouth, Pa.). 8-Br-cGMP was purchased from Sigma-Aldrich.

B1: IFNγ: pleiotropic cytokine produced by T- and NK-cells; obtained from Peprotech (protein, UniProt P01579 24-161, looked up)
Interferon gamma: QDPYVKEAENLKKYFNAGHSDVADNGTLFLGILKNWKEESDRKIMQSQIVSFYFKLFKNFKDDQSIQKSVETIKEDMNVKFFNSNKKKRDDFEKLTNYSVTDLNVQRKAIHELIQVMAELSPAAKTGKRKRSQMLFRG
Rat RPE; IFNγ eye drops on anterior surface, t=0 to 40 minutes, FIG. 23B/E
  JV (fluid transport rate out of the retinal detachment): 12 μl·cm^−2·hr^−1
Rat RPE; IFNγ on anterior surface of the eye
  time in which rate of fluid absorption from subretinal space was significantly increased: less than 30 minutes
Rat RPE; IFNγ on anterior surface, 40 or 54 minutes
  detachment size (volume): decrease in detachment size
hfRPE monolayers; 10 experiments, from 12.9±1.6, mean±s.e.m.
  mean JV after IFNγ: 20.5±3.1 μl·cm^−2·hr^−1
hfRPE monolayers; IFNγ 5 ng/ml apical and basal, 24 hours
  TEP after 24 hour IFNγ: no significant TEP changes
hfRPE monolayers; IFNγ 5 ng/ml apical and basal, 24 hours, control 7.6±1.5, 5 experiments
  mean JV after 24 hour IFNγ: 15.2±2.0 μl·cm^−2·hr^−1
hfRPE monolayers; IFNγ 5 ng/ml basal bath
  cell viability as measured by TEP and RT: no apparent changes
hfRPE monolayers; IFNγ 5 ng/ml in the basal bath, FIG. 14A
  increase in JV: ~8.6 μl·cm^−2·hr^−1
hfRPE monolayers; IFNγ 5 ng/ml, 24 hours, from 592±80, n=5
  RT after 24 hour IFNγ: 356±139 Ω·cm^2
hfRPE monolayers; IFNγ added to the apical bath
  effect on JV: no significant effect
hfRPE monolayers; at 24 hours
  IFNγ-induced resistance change: ≈ 2 fold
  mean IFNγ-induced resistance change: ≈ 240 Ω·cm^2
hfRPE monolayers; continued presence of Rp-8-Br-cAMPS 2 μM, six experiments
  JV after subsequent addition of IFNγ: 8.4±1.7 μl·cm^−2·hr^−1
hfRPE monolayers; in presence of H-89, four experiments
  JV after subsequent addition of IFNγ: 14.7±4.7 μl·cm^−2·hr^−1
hfRPE monolayers; nine experiments (P38 series), from 7.5 ±1.9
  mean JV after IFNγ: 16.5±2.2 μl·cm^−2·hr^−1
hfRPE monolayers; three experiments (H-89 series), from 8.4±1.6
  mean JV after IFNγ: 20.1±0.2 μl·cm^−2·hr^−1
